The results in this text go back to patent US20170022281A1 (AbbVie / Abbott, published 2017).

Positions count from the first letter of the chain named.

Assay [1] deals with T1, murine PRLR (Biacore antigen) (murine, UniProt Q08501 20-229, limits assumed).
T1 construct: also called muPRLR
T1 sequence (looked up): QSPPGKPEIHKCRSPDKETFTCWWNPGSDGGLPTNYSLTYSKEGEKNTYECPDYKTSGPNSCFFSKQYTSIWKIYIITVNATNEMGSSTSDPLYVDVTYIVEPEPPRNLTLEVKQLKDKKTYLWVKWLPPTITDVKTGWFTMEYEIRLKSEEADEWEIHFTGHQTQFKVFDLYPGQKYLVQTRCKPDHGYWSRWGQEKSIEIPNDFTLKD
Put plainly: SPR Biacore. The method, boiled down: (§1)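 Association rate, dissociation rate and dissociation constant were measured by surface plasmon resonance on a Biacore instrument. PRLR antigen was tested at 600 nM, 66.67 nM and 7.41 nM, a 3-point, 9-fold dilution series. Constants came from a 1:1 binding model fit (local Rmax, mass-transport term included) in Biacore T200 Evaluation Software.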

Assay [2] addresses T2, cyno PRLR (Biacore antigen) (cyno, UniProt A0A2K5WXK1 25-234).
T2 construct: also called cyPRLR
T2 sequence: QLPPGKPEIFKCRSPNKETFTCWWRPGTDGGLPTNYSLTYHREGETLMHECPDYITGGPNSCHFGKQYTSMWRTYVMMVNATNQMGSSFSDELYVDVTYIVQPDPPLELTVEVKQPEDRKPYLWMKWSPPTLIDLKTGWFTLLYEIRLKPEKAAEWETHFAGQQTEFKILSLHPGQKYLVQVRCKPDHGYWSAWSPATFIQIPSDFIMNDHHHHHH
The assay can be described thus: SPR Biacore. The method, boiled down: as §1

Assay [3] concerns the target T3, human PRLR (Biacore antigen) (human, UniProt P16471 25-234, limits assumed).
T3 construct: The construct injected over captured antibody is not described (a soluble form is likely); also called huPRLR
T3 sequence: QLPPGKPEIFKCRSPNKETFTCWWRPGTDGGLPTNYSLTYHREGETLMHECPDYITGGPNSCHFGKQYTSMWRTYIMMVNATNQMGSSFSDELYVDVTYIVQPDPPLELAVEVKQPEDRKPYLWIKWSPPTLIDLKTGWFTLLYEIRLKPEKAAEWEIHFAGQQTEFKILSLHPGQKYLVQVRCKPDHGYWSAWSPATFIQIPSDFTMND
Put plainly: SPR Biacore. An outline of the steps: as §1
On the technique in general: In SPR one partner is held on a chip, and binding of the other changes the refractive index at the surface.

In assay [4] the target is T3, human PRLR (Biacore antigen). The assay can be described thus: SPR simultaneous binding; PRLR held by surface mAb Ab49. On the procedure:
(§2) Running buffer was HBS-EP+ (10 mM Hepes, pH7.4, 150 mM NaCl, 3 mM EDTA, 0.05% surfactant). Assay was performed at 12° C. using Biacore T200 and CM5 sensor chips with anti-human IgG (Pierce) amine-coupled in all 4 flow cells to ˜2000 RU.
(§3) Separate test mAbs were captured in flowcells 2, 3 & 4 (flowcell 1 was reference, no test mAb). All 4 flowcells were then blocked by injection with isotype control mAb at 50 ug/ml. All 4 flowcells were then injected with antigen or buffer only (buffer only is for double referencing, done for each mAb pair individually). All 4 flowcells were then injected with 2nd test mAb at 10 ug/ml. All 4 flowcells were then regenerated with glycine, pH1.5.

For assay [5] the target is unchanged. The assay can be described thus: SPR simultaneous binding; PRLR held by surface mAb chAb6. On the procedure:
as §2, §3

Assay [6] deals with T4, mouse PRLR on Baf3-mPRLR cells (mouse, UniProt Q08501 20-608).
T4 sequence (looked up): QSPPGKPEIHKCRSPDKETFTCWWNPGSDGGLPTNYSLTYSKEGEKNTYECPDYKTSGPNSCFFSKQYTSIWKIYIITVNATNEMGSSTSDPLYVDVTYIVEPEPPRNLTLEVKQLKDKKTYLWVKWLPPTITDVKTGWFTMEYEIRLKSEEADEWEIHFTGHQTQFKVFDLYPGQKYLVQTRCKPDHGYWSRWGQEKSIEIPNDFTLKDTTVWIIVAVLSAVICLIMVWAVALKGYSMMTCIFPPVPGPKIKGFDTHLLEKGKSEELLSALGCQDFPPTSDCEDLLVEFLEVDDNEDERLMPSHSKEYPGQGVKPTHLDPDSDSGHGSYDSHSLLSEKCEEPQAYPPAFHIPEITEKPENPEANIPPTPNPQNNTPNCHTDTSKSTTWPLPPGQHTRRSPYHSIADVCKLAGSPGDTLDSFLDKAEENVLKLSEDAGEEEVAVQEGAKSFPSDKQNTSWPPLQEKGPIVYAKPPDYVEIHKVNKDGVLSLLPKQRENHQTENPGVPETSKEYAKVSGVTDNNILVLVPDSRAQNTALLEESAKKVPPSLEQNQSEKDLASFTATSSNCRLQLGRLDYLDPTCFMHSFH
Put plainly: cell-based or functional assay.

Assay [7] concerns the target T5, human PRLR on cells (human, UniProt P16471 25-622).
T5 sequence: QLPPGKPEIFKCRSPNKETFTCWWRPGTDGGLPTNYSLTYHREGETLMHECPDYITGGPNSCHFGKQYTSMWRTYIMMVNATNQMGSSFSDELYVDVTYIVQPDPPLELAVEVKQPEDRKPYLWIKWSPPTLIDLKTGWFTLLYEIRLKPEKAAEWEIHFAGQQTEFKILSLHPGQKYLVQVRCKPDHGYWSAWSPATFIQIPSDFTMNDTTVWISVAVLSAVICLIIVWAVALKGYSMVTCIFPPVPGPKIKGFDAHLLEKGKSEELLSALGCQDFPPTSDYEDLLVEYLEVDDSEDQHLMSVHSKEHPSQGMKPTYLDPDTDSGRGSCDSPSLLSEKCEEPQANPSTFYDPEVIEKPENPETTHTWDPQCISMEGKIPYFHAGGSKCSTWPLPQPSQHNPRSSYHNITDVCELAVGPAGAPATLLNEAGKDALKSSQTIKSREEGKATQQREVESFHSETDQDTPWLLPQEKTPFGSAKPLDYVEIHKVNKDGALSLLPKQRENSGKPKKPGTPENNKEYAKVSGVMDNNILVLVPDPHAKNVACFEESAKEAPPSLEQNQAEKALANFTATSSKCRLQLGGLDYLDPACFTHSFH
The assay can be described thus: cell-based or functional assay.

For orientation: Kd means the constant that tells how readily two partners part at equilibrium. High values mean weaker binding, low ones tighter binding. The term koff denotes a measure of how fast the partners let go of each other. Low readings indicate slow dissociation, high ones fast dissociation. As usually defined, the kon is the rate constant with which the complex forms.

B1: chAb5 (antibody, human IgG1, kappa, V domains shown)
VH: QVQLQQPGAELVRPGTSVKLSCKASGYTFTSFWMHWVKQRPGQGLEWIGVIDPSDTYTNYNQKFKGKATLTVDTSSSTAYMQLSSLTSEDSAVYYCARGDYSNWFTYWGQGTLVTVSA
VL: DVVMTQTPLSLPVSLGDQASISCRSSQRLVHSNGNTYLHWYLQKPGQSPKLLIYKVSNRFSGVPDRFSGSGSGTDFTLKISRVEAEDLGVYFCSQSTHVPWTFGGGTKLEIKT
notes: chimeric, murine variable and human G1/kappa constant regions
On to B1, for which the Kd in assay [1] is 13.8 nM; in assay [2], 0.671 nM; in assay [3], 0.558 nM. Also, the koff in assay [1] is 0.00277 s⁻¹; in assay [2] it was 0.000223 s⁻¹; in assay [3], 0.000199 s⁻¹. Also, the results for the on-rate (kon) in assay [1], in assay [2] and in assay [3] were 200000 M⁻¹ s⁻¹, 333000 M⁻¹ s⁻¹ and 356000 M⁻¹ s⁻¹, respectively. Further, the “solution mAb binding, % of PRLR binding” value in assay [4] is 7%; in assay [5], -1%. Moreover, the “Baf3-mPRLR proliferation IC50” value in assay [6] is 2.51 µg/mL. Also, the “Baf3-hPRLR proliferation IC50” value in assay [7] worked out at 0.15 µg/mL.

B2: chAb7 (antibody, human IgG1, kappa, V domains shown)
VH: QVQLQQPGAELVMPGTSVKLSCKASGYTFTSYWIHWVKQRPGQGLEWIGEIDPSDSYTNYNQKFKGKATLTVDRSSSTAYMQLSSLTSEDSAVYYCGRSFFTNWFAYWGQGTLVTVSA
VL: B1 VL with R28S, S81N, W101F, G105S
notes: as for B1
As for B2, the Kd in assay [1] worked out at 44.9 nM; in assay [2] it was 0.154 nM; in assay [3], 0.18 nM. In addition, the figures for the koff in assay [1], in assay [2] and in assay [3] were 0.00357 s⁻¹, 3.61e-05 s⁻¹ and 4.46e-05 s⁻¹, respectively. Further, the kon in assay [1] was found to be 79500 M⁻¹ s⁻¹; in assay [2], 235000 M⁻¹ s⁻¹; in assay [3] it was 248000 M⁻¹ s⁻¹. The “solution mAb binding, % of PRLR binding” value was 2% in assay [4] and -1% in assay [5]. The “Baf3-mPRLR proliferation IC50” value in assay [6] worked out at 3.6 µg/mL. Also, the “Baf3-hPRLR proliferation IC50” value in assay [7] amounted to 1.2 µg/mL.
